Measurements from paper PMC9424243, “Structure of a nucleosome-bound MuvB transcription factor complex reveals DNA remodelling” (Nature Communications, 2022).

B1: LIN52^FL(1–116) (natural protein, human, UniProt Q52LA3 1-112, looked up)
chain: MASPTDGTDLEASLLSFEKLDRASPDLWPEQLPGVAEFAASFKSPITSSPPKWMAEIERDDIDMLKELGSLTTANLMEKVRGLQNLAYQLGLDESREMTRGKFLNILEKPKK
notes: LIN52, human, residues 1-116 (LIN52^FL), codon optimised CDS; source: Hi-5 insect cells co-infected with MuvB baculoviruses; purified as part of the complex (Strep-Tactin, 3C protease, SEC)
B2: LIN9^FL(1–542) (natural protein, human, UniProt Q5TKA1 1-542, looked up)
chain: MAELDQLPDESSSAKALVSLKEGSLSNTWNEKYSSLQKTPVWKGRNTSSAVEMPFRNSKRSRLFSDEDDRQINTRSPKRNQRVAMVPQKFTATMSTPDKKASQKIGFRLRNLLKLPKAHKWCIYEWFYSNIDKPLFEGDNDFCVCLKESFPNLKTRKLTRVEWGKIRRLMGKPRRCSSAFFEEERSALKQKRQKIRLLQQRKVADVSQFKDLPDEIPLPLVIGTKVTARLRGVHDGLFTGQIDAVDTLNATYRVTFDRTGLGTHTIPDYEVLSNEPHETMPIAAFGQKQRPSRFFMTPPRLHYTPPLQSPIIDNDPLLGQSPWRSKISGSDTETLGGFPVEFLIQVTRLSKILMIKKEHIKKLREMNTEAEKLKSYSMPISIEFQRRYATIVLELEQLNKDLNKVLHKVQQYCYELAPDQGLQPADQPTDMRRRCEEEAQEIVRHANSSTGQPCVENENLTDLISRLTAILLQIKCLAEGGDLNSFEFKSLTDSLNDIKSTIDASNISCFQNNVEIHVAHIQSGLSQMGNLHAFAANNTNRD
notes: LIN9, human, residues 1-542 (LIN9^FL), codon optimised CDS; Subunit of the co-expressed MuvB, MuvB^core and MMB^core complexes; only DIRP and tudor domains are built in PDB 7R1D; source: Hi-5 insect cells co-infected with MuvB baculoviruses; purified as part of the complex (Strep-Tactin, 3C protease, SEC)
B3: LIN54^short(515–749) (domain or fragment, human, UniProt Q6MZP7 515-749, looked up)
chain: SESASRPRKPCNCTKSLCLKLYCDCFANGEFCNNCNCTNCYNNLEHENERQKAIKACLDRNPEAFKPKIGKGKEGESDRRHSKGCNCKRSGCLKNYCECYEAKIMCSSICKCIGCKNFEESPERKTLMHLADAAEVRVQQQTAAKTKLSSQISDLLTRPTPALNSGGGKLPFTFVTKEVAEATCNCLLAQAEQADKKGKSKAAAERMILEEFGRCLMSVINSAGKAKSDPCAMNC
notes: LIN54, human, residues 515-749 (non-conserved N-terminus removed), codon optimised CDS; also called short version of LIN54; source: Hi-5 insect cells co-infected with MuvB baculoviruses; purified as part of the complex (Strep-Tactin, 3C protease, SEC)
B4: LIN37^FL(1–246) (natural protein, human, UniProt Q96GY3 1-246, looked up)
chain: MFPVKVKVEKSELEMAKARNQLDAVLQCLLEKSHMDRERLDEEAGKTPSDTHNKDCSIAATGKRPSARFPHQRRKKRREMDDGLAEGGPQRSNTYVIKLFDRSVDLAQFSENTPLYPICRAWMRNSPSVRERECSPSSPLPPLPEDEEGSEVTNSKSRDVYKLPPPTPPGPPGDACRSRIPSPLQPEMQGTPDDEPSEPEPSPSTLIYRNMQRWKRIRQRWKEASHRNQLRYSESMKILREMYERQ
notes: LIN37, human, residues 1-246 (LIN37^FL), codon optimised CDS; Carries the StrepII x2 tag by which the MuvB complexes were purified; the tag was removed with 3C protease before the final SEC; also called FL-LIN37; source: Hi-5 insect cells co-infected with MuvB baculoviruses; purified as part of the complex (Strep-Tactin, 3C protease, SEC)

What was measured:
LIN37^FL(1–246) = biological target: B4; assay: mass photometry; purified co-expressed complex diluted from 500 nM just before measurement; 20 mM HEPES pH 8, 150 mM NaCl, 0.5 mM TCEP; conditions: both partners purified
B-MYB^FL(1–700) = biological target: T1, B-MYB^FL(1–700) (human, UniProt P10244 1-700); assay: cryo-EM structure; MMB^core:NCP167 mixed at 2.5:1, GraFix (glutaraldehyde, sucrose gradient); nucleosome at 3.3 Å, MuvB^HEAD 7.5 Å and MuvB^TAIL 8.7 Å, known structures fitted; conditions: both partners purified
T1 construct: B-MYB, human, residues 1-700 (B-MYB^FL), codon optimised CDS; source: Hi-5 insect cells, expressed separately, purified separately as per the MuvB protocol
T1 sequence (looked up): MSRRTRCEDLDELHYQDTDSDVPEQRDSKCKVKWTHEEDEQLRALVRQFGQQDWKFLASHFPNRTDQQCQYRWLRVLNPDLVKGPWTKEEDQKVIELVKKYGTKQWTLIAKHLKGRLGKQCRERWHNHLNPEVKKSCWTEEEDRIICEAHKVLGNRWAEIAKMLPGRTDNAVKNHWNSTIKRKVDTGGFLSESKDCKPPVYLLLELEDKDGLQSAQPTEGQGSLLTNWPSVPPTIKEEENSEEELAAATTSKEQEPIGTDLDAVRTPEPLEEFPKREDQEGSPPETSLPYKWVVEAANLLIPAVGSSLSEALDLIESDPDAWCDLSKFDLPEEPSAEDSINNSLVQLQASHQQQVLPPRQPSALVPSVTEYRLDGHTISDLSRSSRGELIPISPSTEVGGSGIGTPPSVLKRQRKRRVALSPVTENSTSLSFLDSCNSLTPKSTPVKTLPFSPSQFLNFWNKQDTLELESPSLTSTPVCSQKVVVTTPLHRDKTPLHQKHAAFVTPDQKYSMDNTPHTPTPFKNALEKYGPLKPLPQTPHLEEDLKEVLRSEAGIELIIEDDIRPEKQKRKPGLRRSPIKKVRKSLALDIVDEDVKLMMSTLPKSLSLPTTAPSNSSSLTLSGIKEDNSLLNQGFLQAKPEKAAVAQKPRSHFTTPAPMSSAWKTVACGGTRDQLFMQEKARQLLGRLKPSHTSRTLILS

LIN9^FL(1–542) [1] = biological target: B2; assay: cross-linking; DSSO cross-linking mass spectrometry of 28 μM purified MuvB complex, 10 min on ice, monomeric SEC fraction analysed; conditions: both partners purified
RbBP4^FL(1–425) = biological target: T2, RbBP4^FL(1–425) (human, UniProt Q09028 1-425); assay: as above; conditions: both partners purified
T2 construct: Subunit of the co-expressed MuvB complexes in which the StrepII x2 tag stands on LIN37; source: Hi-5 insect cells co-infected with MuvB baculoviruses; purified as part of the complex (Strep-Tactin, 3C protease, SEC)
T2 sequence (Q09028 whole entry): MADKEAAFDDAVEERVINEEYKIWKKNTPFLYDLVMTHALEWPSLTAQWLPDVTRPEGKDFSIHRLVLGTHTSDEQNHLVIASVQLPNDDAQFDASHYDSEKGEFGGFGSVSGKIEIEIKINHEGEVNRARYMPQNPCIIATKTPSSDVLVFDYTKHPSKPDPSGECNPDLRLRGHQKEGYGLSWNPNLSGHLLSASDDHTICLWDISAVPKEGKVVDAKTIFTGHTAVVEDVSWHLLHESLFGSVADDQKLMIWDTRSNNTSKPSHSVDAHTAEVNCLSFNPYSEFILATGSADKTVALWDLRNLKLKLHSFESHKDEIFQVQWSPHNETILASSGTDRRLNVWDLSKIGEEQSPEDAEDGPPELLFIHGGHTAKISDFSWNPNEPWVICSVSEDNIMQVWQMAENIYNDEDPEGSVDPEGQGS

LIN9^FL(1–542) [2] = biological target: B2; assay: SEC; subunits co-expressed in Hi-5 cells; complex held on Strep-Tactin by StrepII x2 on LIN37, washed with 1000 mM NaCl, tag cut with 3C, then SEC (S200 or Superose 6) in 20 mM HEPES pH 8, 150 mM NaCl, 0.5 mM TCEP; conditions: partners not purified

Binder	stoichiometry N (LIN37^FL(1–246))	binding result (B-MYB^FL(1–700))	binding result (LIN9^FL(1–542) [1])	binding result (RbBP4^FL(1–425))	binding result (LIN9^FL(1–542) [2])
B1	1	–	–	–	–
B2	1	binds	–	–	–
B3	1	–	binds	binds	–
B4	–	–	–	–	binds
